B1: library; numbered along this chain (parent)
chain: MAAAAAAAAEQQSSNGPVKKSMREKAVERRSVNKEHNSNFKAGYIPIDEDRLHKTGLRGRKGNLAICVIILLFILAVINLIITLVIWAVIRIGPNGCDSMEFHESGLLRFKQVSDMGVIHPLYKSTVGGRRNENLVITGNNQPIVFQQGTTKLSVENNKTSITSDIGMQFFDPRTQNILFSTDYETHEFHLPSGVKSLNVQKASTERITSNATSDLNIKVDGRAIVRGNEGVFIMGKTIEFHMGGNMELKAENSIILNGSVMVSTTRLPSSSSGDQLGSGDWVRYKLCMCADGTLFKVQVTSQNMGCQISDNPCGNTH

In the data set the parent is B1. Kind of data set: SGCB cell-surface expression functional score (HA stain, bin4 vs bin1, normalised to synonymous) (log10 ratio); higher = more cell-surface SGCB (functional). Summed up:
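Codon-saturation libraries of HA-tagged, YFP-fused human beta-sarcoglycan were lentivirally transduced at MOI <0.1 into HEK293 cells stably expressing alpha-, gamma- and delta-sarcoglycan. YFP-positive cells were sorted after 72 hours, grown 5–7 days, stained on ice with Alexa Fluor 647 anti-HA, fixed, sorted into four 5% intensity bins and amplicon-sequenced. The functional score is the log ratio of highest-bin to lowest-bin variant frequency, taken as the median over codons and duplicate transductions. Synonymous variants were scaled per section to mean 0, SD 0.5.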
Regarding MAAAAAAAAEQQSSNGPVKKSMREKAVERRSVNKEHNSNFKAGYIPIDEDRLHKTGLRGRKGNLAICVIILLFILAVINLIITLVIWARIRIGPNGCDSMEFHESGLLRFKQVSDMGVIHPLYKSTVGGRRNENLVITGNNQPIVFQQGTTKLSVENNKTSITSDIGMQFFDPRTQNILFSTDYETHEFHLPSGVKSLNVQKASTERITSNATSDLNIKVDGRAIVRGNEGVFIMGKTIEFHMGGNMELKAENSIILNGSVMVSTTRLPSSSSGDQLGSGDWVRYKLCMCADGTLFKVQVTSQNMGCQISDNPCGNTH [V89R], the “SGCB cell-surface expression functional score (log10)” value is -0.63.
Take MAAAAAAAAEQQSSNGPVKKSMREKAVERRSVNKEHNSNFKAGYIPIDEDRLHKTGLRGRKGNLAICVIILLFILAVINLIITLVIWAKIRIGPNGCDSMEFHESGLLRFKQVSDMGVIHPLYKSTVGGRRNENLVITGNNQPIVFQQGTTKLSVENNKTSITSDIGMQFFDPRTQNILFSTDYETHEFHLPSGVKSLNVQKASTERITSNATSDLNIKVDGRAIVRGNEGVFIMGKTIEFHMGGNMELKAENSIILNGSVMVSTTRLPSSSSGDQLGSGDWVRYKLCMCADGTLFKVQVTSQNMGCQISDNPCGNTH [V89K]: the “SGCB cell-surface expression functional score (log10)” value was 0.02.
Next, MAAAAAAAAEQQSSNGPVKKSMREKAVERRSVNKEHNSNFKAGYIPIDEDRLHKTGLRGRKGNLAICVIILLFILAVINLIITLVIWANIRIGPNGCDSMEFHESGLLRFKQVSDMGVIHPLYKSTVGGRRNENLVITGNNQPIVFQQGTTKLSVENNKTSITSDIGMQFFDPRTQNILFSTDYETHEFHLPSGVKSLNVQKASTERITSNATSDLNIKVDGRAIVRGNEGVFIMGKTIEFHMGGNMELKAENSIILNGSVMVSTTRLPSSSSGDQLGSGDWVRYKLCMCADGTLFKVQVTSQNMGCQISDNPCGNTH [V89N]: -2.05.
Next, MAAAAAAAAEQQSSNGPVKKSMREKAVERRSVNKEHNSNFKAGYIPIDEDRLHKTGLRGRKGNLAICVIILLFILAVINLIITLVIWASIRIGPNGCDSMEFHESGLLRFKQVSDMGVIHPLYKSTVGGRRNENLVITGNNQPIVFQQGTTKLSVENNKTSITSDIGMQFFDPRTQNILFSTDYETHEFHLPSGVKSLNVQKASTERITSNATSDLNIKVDGRAIVRGNEGVFIMGKTIEFHMGGNMELKAENSIILNGSVMVSTTRLPSSSSGDQLGSGDWVRYKLCMCADGTLFKVQVTSQNMGCQISDNPCGNTH [V89S]: -0.41.
MAAAAAAAAEQQSSNGPVKKSMREKAVERRSVNKEHNSNFKAGYIPIDEDRLHKTGLRGRKGNLAICVIILLFILAVINLIITLVIWAQIRIGPNGCDSMEFHESGLLRFKQVSDMGVIHPLYKSTVGGRRNENLVITGNNQPIVFQQGTTKLSVENNKTSITSDIGMQFFDPRTQNILFSTDYETHEFHLPSGVKSLNVQKASTERITSNATSDLNIKVDGRAIVRGNEGVFIMGKTIEFHMGGNMELKAENSIILNGSVMVSTTRLPSSSSGDQLGSGDWVRYKLCMCADGTLFKVQVTSQNMGCQISDNPCGNTH [V89Q]: the “SGCB cell-surface expression functional score (log10)” value was -1.44.
Regarding MAAAAAAAAEQQSSNGPVKKSMREKAVERRSVNKEHNSNFKAGYIPIDEDRLHKTGLRGRKGNLAICVIILLFILAVINLIITLVIWAMIRIGPNGCDSMEFHESGLLRFKQVSDMGVIHPLYKSTVGGRRNENLVITGNNQPIVFQQGTTKLSVENNKTSITSDIGMQFFDPRTQNILFSTDYETHEFHLPSGVKSLNVQKASTERITSNATSDLNIKVDGRAIVRGNEGVFIMGKTIEFHMGGNMELKAENSIILNGSVMVSTTRLPSSSSGDQLGSGDWVRYKLCMCADGTLFKVQVTSQNMGCQISDNPCGNTH [V89M], the “SGCB cell-surface expression functional score (log10)” value is -0.96.
Next, MAAAAAAAAEQQSSNGPVKKSMREKAVERRSVNKEHNSNFKAGYIPIDEDRLHKTGLRGRKGNLAICVIILLFILAVINLIITLVIWAEIRIGPNGCDSMEFHESGLLRFKQVSDMGVIHPLYKSTVGGRRNENLVITGNNQPIVFQQGTTKLSVENNKTSITSDIGMQFFDPRTQNILFSTDYETHEFHLPSGVKSLNVQKASTERITSNATSDLNIKVDGRAIVRGNEGVFIMGKTIEFHMGGNMELKAENSIILNGSVMVSTTRLPSSSSGDQLGSGDWVRYKLCMCADGTLFKVQVTSQNMGCQISDNPCGNTH [V89E]: -0.95; MAAAAAAAAEQQSSNGPVKKSMREKAVERRSVNKEHNSNFKAGYIPIDEDRLHKTGLRGRKGNLAICVIILLFILAVINLIITLVIWAIIRIGPNGCDSMEFHESGLLRFKQVSDMGVIHPLYKSTVGGRRNENLVITGNNQPIVFQQGTTKLSVENNKTSITSDIGMQFFDPRTQNILFSTDYETHEFHLPSGVKSLNVQKASTERITSNATSDLNIKVDGRAIVRGNEGVFIMGKTIEFHMGGNMELKAENSIILNGSVMVSTTRLPSSSSGDQLGSGDWVRYKLCMCADGTLFKVQVTSQNMGCQISDNPCGNTH [V89I]: -0.52; MAAAAAAAAEQQSSNGPVKKSMREKAVERRSVNKEHNSNFKAGYIPIDEDRLHKTGLRGRKGNLAICVIILLFILAVINLIITLVIWAHIRIGPNGCDSMEFHESGLLRFKQVSDMGVIHPLYKSTVGGRRNENLVITGNNQPIVFQQGTTKLSVENNKTSITSDIGMQFFDPRTQNILFSTDYETHEFHLPSGVKSLNVQKASTERITSNATSDLNIKVDGRAIVRGNEGVFIMGKTIEFHMGGNMELKAENSIILNGSVMVSTTRLPSSSSGDQLGSGDWVRYKLCMCADGTLFKVQVTSQNMGCQISDNPCGNTH [V89H]: -1.8.
In the case of MAAAAAAAAEQQSSNGPVKKSMREKAVERRSVNKEHNSNFKAGYIPIDEDRLHKTGLRGRKGNLAICVIILLFILAVINLIITLVIWAFIRIGPNGCDSMEFHESGLLRFKQVSDMGVIHPLYKSTVGGRRNENLVITGNNQPIVFQQGTTKLSVENNKTSITSDIGMQFFDPRTQNILFSTDYETHEFHLPSGVKSLNVQKASTERITSNATSDLNIKVDGRAIVRGNEGVFIMGKTIEFHMGGNMELKAENSIILNGSVMVSTTRLPSSSSGDQLGSGDWVRYKLCMCADGTLFKVQVTSQNMGCQISDNPCGNTH [V89F], the “SGCB cell-surface expression functional score (log10)” value was -1.21.
Consider MAAAAAAAAEQQSSNGPVKKSMREKAVERRSVNKEHNSNFKAGYIPIDEDRLHKTGLRGRKGNLAICVIILLFILAVINLIITLVIWAGIRIGPNGCDSMEFHESGLLRFKQVSDMGVIHPLYKSTVGGRRNENLVITGNNQPIVFQQGTTKLSVENNKTSITSDIGMQFFDPRTQNILFSTDYETHEFHLPSGVKSLNVQKASTERITSNATSDLNIKVDGRAIVRGNEGVFIMGKTIEFHMGGNMELKAENSIILNGSVMVSTTRLPSSSSGDQLGSGDWVRYKLCMCADGTLFKVQVTSQNMGCQISDNPCGNTH [V89G], for which the “SGCB cell-surface expression functional score (log10)” value was -0.36.
Consider MAAAAAAAAEQQSSNGPVKKSMREKAVERRSVNKEHNSNFKAGYIPIDEDRLHKTGLRGRKGNLAICVIILLFILAVINLIITLVIWAPIRIGPNGCDSMEFHESGLLRFKQVSDMGVIHPLYKSTVGGRRNENLVITGNNQPIVFQQGTTKLSVENNKTSITSDIGMQFFDPRTQNILFSTDYETHEFHLPSGVKSLNVQKASTERITSNATSDLNIKVDGRAIVRGNEGVFIMGKTIEFHMGGNMELKAENSIILNGSVMVSTTRLPSSSSGDQLGSGDWVRYKLCMCADGTLFKVQVTSQNMGCQISDNPCGNTH [V89P], for which the “SGCB cell-surface expression functional score (log10)” value is -0.88.
As for MAAAAAAAAEQQSSNGPVKKSMREKAVERRSVNKEHNSNFKAGYIPIDEDRLHKTGLRGRKGNLAICVIILLFILAVINLIITLVIWACIRIGPNGCDSMEFHESGLLRFKQVSDMGVIHPLYKSTVGGRRNENLVITGNNQPIVFQQGTTKLSVENNKTSITSDIGMQFFDPRTQNILFSTDYETHEFHLPSGVKSLNVQKASTERITSNATSDLNIKVDGRAIVRGNEGVFIMGKTIEFHMGGNMELKAENSIILNGSVMVSTTRLPSSSSGDQLGSGDWVRYKLCMCADGTLFKVQVTSQNMGCQISDNPCGNTH [V89C], the “SGCB cell-surface expression functional score (log10)” value was found to be 0.
Regarding MAAAAAAAAEQQSSNGPVKKSMREKAVERRSVNKEHNSNFKAGYIPIDEDRLHKTGLRGRKGNLAICVIILLFILAVINLIITLVIWADIRIGPNGCDSMEFHESGLLRFKQVSDMGVIHPLYKSTVGGRRNENLVITGNNQPIVFQQGTTKLSVENNKTSITSDIGMQFFDPRTQNILFSTDYETHEFHLPSGVKSLNVQKASTERITSNATSDLNIKVDGRAIVRGNEGVFIMGKTIEFHMGGNMELKAENSIILNGSVMVSTTRLPSSSSGDQLGSGDWVRYKLCMCADGTLFKVQVTSQNMGCQISDNPCGNTH [V89D], the “SGCB cell-surface expression functional score (log10)” value is -2.32.
For MAAAAAAAAEQQSSNGPVKKSMREKAVERRSVNKEHNSNFKAGYIPIDEDRLHKTGLRGRKGNLAICVIILLFILAVINLIITLVIWAAIRIGPNGCDSMEFHESGLLRFKQVSDMGVIHPLYKSTVGGRRNENLVITGNNQPIVFQQGTTKLSVENNKTSITSDIGMQFFDPRTQNILFSTDYETHEFHLPSGVKSLNVQKASTERITSNATSDLNIKVDGRAIVRGNEGVFIMGKTIEFHMGGNMELKAENSIILNGSVMVSTTRLPSSSSGDQLGSGDWVRYKLCMCADGTLFKVQVTSQNMGCQISDNPCGNTH [V89A], the “SGCB cell-surface expression functional score (log10)” value is -0.23.
Turning to MAAAAAAAAEQQSSNGPVKKSMREKAVERRSVNKEHNSNFKAGYIPIDEDRLHKTGLRGRKGNLAICVIILLFILAVINLIITLVIWALIRIGPNGCDSMEFHESGLLRFKQVSDMGVIHPLYKSTVGGRRNENLVITGNNQPIVFQQGTTKLSVENNKTSITSDIGMQFFDPRTQNILFSTDYETHEFHLPSGVKSLNVQKASTERITSNATSDLNIKVDGRAIVRGNEGVFIMGKTIEFHMGGNMELKAENSIILNGSVMVSTTRLPSSSSGDQLGSGDWVRYKLCMCADGTLFKVQVTSQNMGCQISDNPCGNTH [V89L], the “SGCB cell-surface expression functional score (log10)” value was -1.13.
Consider MAAAAAAAAEQQSSNGPVKKSMREKAVERRSVNKEHNSNFKAGYIPIDEDRLHKTGLRGRKGNLAICVIILLFILAVINLIITLVIWYVIRIGPNGCDSMEFHESGLLRFKQVSDMGVIHPLYKSTVGGRRNENLVITGNNQPIVFQQGTTKLSVENNKTSITSDIGMQFFDPRTQNILFSTDYETHEFHLPSGVKSLNVQKASTERITSNATSDLNIKVDGRAIVRGNEGVFIMGKTIEFHMGGNMELKAENSIILNGSVMVSTTRLPSSSSGDQLGSGDWVRYKLCMCADGTLFKVQVTSQNMGCQISDNPCGNTH [A88Y], for which the “SGCB cell-surface expression functional score (log10)” value is 0.01.
With MAAAAAAAAEQQSSNGPVKKSMREKAVERRSVNKEHNSNFKAGYIPIDEDRLHKTGLRGRKGNLAICVIILLFILAVINLIITLVIWWVIRIGPNGCDSMEFHESGLLRFKQVSDMGVIHPLYKSTVGGRRNENLVITGNNQPIVFQQGTTKLSVENNKTSITSDIGMQFFDPRTQNILFSTDYETHEFHLPSGVKSLNVQKASTERITSNATSDLNIKVDGRAIVRGNEGVFIMGKTIEFHMGGNMELKAENSIILNGSVMVSTTRLPSSSSGDQLGSGDWVRYKLCMCADGTLFKVQVTSQNMGCQISDNPCGNTH [A88W], the “SGCB cell-surface expression functional score (log10)” value is -0.36.
As for MAAAAAAAAEQQSSNGPVKKSMREKAVERRSVNKEHNSNFKAGYIPIDEDRLHKTGLRGRKGNLAICVIILLFILAVINLIITLVIWVVIRIGPNGCDSMEFHESGLLRFKQVSDMGVIHPLYKSTVGGRRNENLVITGNNQPIVFQQGTTKLSVENNKTSITSDIGMQFFDPRTQNILFSTDYETHEFHLPSGVKSLNVQKASTERITSNATSDLNIKVDGRAIVRGNEGVFIMGKTIEFHMGGNMELKAENSIILNGSVMVSTTRLPSSSSGDQLGSGDWVRYKLCMCADGTLFKVQVTSQNMGCQISDNPCGNTH [A88V], the “SGCB cell-surface expression functional score (log10)” value is 0.25.
